± gives the standard deviation.

This data set is described as follows: protein stability index of a GFP-peptide fusion (GPS, HEK-293T) (PSI 1-6); higher = more stable.
The mark [1] stands for this setting: treatment: DMSO, c terminus: native.
[2] abbreviates: treatment: MLN4924 1 uM, 8 h, c terminus: native.
Setting [3] is: treatment: DMSO, c terminus: a fixed tail appended.
Where [4] appears, read: treatment: MLN4924 1 uM, 8 h, c terminus: a fixed tail appended.
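Also: 24-mer peptide tiles fused after GFP, lentivirally expressed, FACS-sorted into six equal bins by GFP/DsRed ratio, decoded by Illumina sequencing, PSI is the read-weighted mean bin number.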

As to FSEETEKKFEHFSGLLNNQLSPQ [LOXL2], the protein stability index runs as follows: under setting [1], 3.57 ± 0.72; under setting [2], 4.61 ± 0.37. Consider FSLMVTFPDVPLGIFLFCVCVIAI [TMEM175], for which the protein stability index worked out at 3.37 ± 0.5 under setting [3] and 3.14 ± 0.31 under setting [4]. With FSQEIGLASLGASEEAVQKLATCY [TPH1], the protein stability index under setting [3] came to 3.12 ± 0.18 and the protein stability index under setting [4] was found to be 3.34 ± 0.3. For FSSDKAKAGSSEWLAVDGLVSPSN [ATF4], in that order: 3.8 ± 0.26 and 4.08 ± 0.32. Turning to FTAALEHCRENAHDKIRPISSIGQ [SPACA9], the protein stability index was 3.3 ± 0.088 under setting [3] and 3.41 ± 0.25 under setting [4]. The matching figures for FTSPDYQQQCHEMAERLEDSVLKG [SDE2]: 3.01 ± 0.59 and 3.62 ± 0.7.

For the sequence FVCQCYSGYALAEDGKRCVAVDYC [MATN2], the protein stability index by setting is: under setting [3], 2.29 ± 0.93; under setting [4], 2.77 ± 0.46. Take FVEATRKWKVGIPSDPLVSIGALI [ALDH8A1]: the protein stability index reads like this: under setting [3], 2.34 ± 1.1; under setting [4], 2.16 ± 0.57. Regarding FWQTQYNNMNAVNLFFAWIKIFKY [PKD2L1], the protein stability index was determined as 2.38 ± 0.38 under setting [3] and 2.19 ± 0.52 under setting [4]. Regarding GAFDSFLLRFGVPSPSTLEPHPRP [TNXB], the protein stability index turned out to be 2.99 ± 0.42 under setting [3] and 2.97 ± 0.35 under setting [4].

With GAFYRRAQRLRPQDEPRQGCQPED [KCNG1], the protein stability index is, setting by setting: under setting [3], 5.21 ± 0.18; under setting [4], 5.11 ± 0.11. For GALLAPIRVLLAFIVLFLLWPFAW [LPCAT4], in that order: 2.68 ± 0.51 and 2.67 ± 0.54. The matching figures for GASLYAISNVCEEYIVKKLSRQEF [SLC35F2]: 2.3 ± 0.27 and 2.45 ± 0.43. The matching figures for GCCVFAFLVGLLFVQRSGNYFVTM [SLC6A17]: 3.39 ± 0.34 and 3.12 ± 0.07. Take GCSLTADGLPLHFFIQTVRPKDTV [MYORG]: the protein stability index under setting [3] was 2.3 ± 0.25 and the protein stability index under setting [4] came to 2.19 ± 0.33. For the sequence GCWAWPLAGLSVGRSSLTACSLPL [PXN], the protein stability index by setting is: under setting [3], 1.99 ± 0.86; under setting [4], 2.15 ± 0.82.

For GFTPLHMAVDKDTTNVGRYPVGRF [FEM1A], the protein stability index under setting [3] amounted to 3.43 ± 0.089 and the protein stability index under setting [4] was 3.6 ± 0.36. The matching figures for GGGPSATEWACILRRKTPRHKQPT [C6orf223]: 3.57 ± 0.12 and 3.72 ± 0.16. Turning to GGLGGGYGGGLGGGFGGGFAGGFV [KRT13], the protein stability index runs as follows: under setting [3], 2.16 ± 0.25; under setting [4], 2.1 ± 0.82.

As for GGQDGLGAPKDQQQPPQQQPSQQQ [KLHL14], the protein stability index came out at 5.36 ± 0.5 under setting [3] and 5.4 ± 0.56 under setting [4].

GGYEKASKRMTFQMPKFDLGPLLS [MYOZ1]: the protein stability index runs as follows: under setting [3], 2.54 ± 0.32; under setting [4], 2.64 ± 0.22. Regarding GHCLLDKPEAPLHLPVTFPGKDYD [ADAMTS4], the protein stability index runs as follows: under setting [3], 4.14 ± 0.26; under setting [4], 4.4 ± 0.3. Take GKKEIKPFKRFLRKKSKPKKCVKK [SMOC2]: the protein stability index under setting [3] turned out to be 3.1 ± 0.25. Turning to GKSVSSSSSVETGPSVSEPPGLPR [SPATS1], the protein stability index under setting [3] turned out to be 5.08 ± 0.18 and the protein stability index under setting [4] was 5.11 ± 0.067.

For the sequence GKWPQVLFFPEGTCSNKKALLKFK [LPCAT4], the protein stability index runs as follows: under setting [3], 2.52 ± 0.31; under setting [4], 2.57 ± 0.45.

Take GLAMALEPNTTFLRKSLKAALKHL [FANCE]: the protein stability index under setting [3] is 2.48 ± 0.33 and the protein stability index under setting [4] was found to be 2.54 ± 0.62.

Regarding GLKASLERLQLEYVDVVFANRPDP [KCNAB2], the protein stability index runs as follows: under setting [3], 2.47 ± 0.42; under setting [4], 2.21 ± 0.37.

As for GLMTQSSLETHHYVDCGGNSTAI [TMEM106C], the protein stability index is 3.18 ± 0.074 under setting [1] and 3.6 ± 0.13 under setting [2].

Regarding GLQRNLLVENIIDIYKQECSSRPL [TRIM63], the protein stability index by setting is: under setting [3], 2.71 ± 0.31; under setting [4], 2.87 ± 0.19. In the case of GMDDFLGVYSMPAGTKVFEVPEMS [TLE6], the protein stability index by setting is: under setting [3], 3.08 ± 0.23; under setting [4], 3.15 ± 0.25.

Consider GNIIAHASTTRLYLRKGRGETRIC [RAD51], for which the protein stability index reads like this: under setting [3], 3.11 ± 0.44; under setting [4], 3.16 ± 0.34. The matching figures for GNMANLSLHDHDGSSGASDQDTLA [DVL3]: 5.42 ± 0.12 and 5.3 ± 0.41.

Consider GPLPQSFDKEWVAKQTKRMLDMKV [COX4I1], for which the protein stability index by setting is: under setting [3], 3.86 ± 0.15; under setting [4], 3.86 ± 0.31. As for GPRVGEALVSHPEVPLISFTGSQP [ALDH8A1], the protein stability index by setting is: under setting [3], 3.77 ± 0.34; under setting [4], 4.09 ± 0.31. For GPVPGTPGLPGSTGNPKSEEPEVP [SPNS1], in that order: 5.55 ± 0.2 and 5.3 ± 0.34. The matching figures for GQFVFARDAKAAMAGRLMIRKLVA [AASDHPPT]: 2.08 ± 0.43 and 2.02 ± 0.46.

In the case of GQINVVKHLLNLGVEIDEINVYGN [ANKRD44], the protein stability index came out at 2.32 ± 0.46 under setting [3] and 2.29 ± 0.3 under setting [4]. The matching figures for GREDEDGWETRGDRKARKPLVEKK [HES6]: 5.4 ± 0.14 and 5.34 ± 0.37. The matching figures for GRRATLQRLVEALEENELTSLAED [TRADD]: 4.54 ± 0.19 and 4.43 ± 0.14. As for GSAAPGSPLAADPACLGQPHTPGK [FOXJ1], the protein stability index is 5.25 ± 0.29 under setting [3] and 5.4 ± 0.13 under setting [4]. The matching figures for GSCSTEVEKETQEKMTILQTYFRQ [ATP6V1G1]: 2.5 ± 0.25 and 2.62 ± 0.3. For GSGFGGGYGGGLGAGFGGGLGAGF [KRT16], in that order: 2.27 ± 0.25 and 2.54 ± 0.67.

For GSKKKFDKCMVCGGDGSGCSKQSG [ADAMTS4], the protein stability index by setting is: under setting [3], 4.18 ± 0.4; under setting [4], 4.02 ± 0.34.

Turning to GSLPGPGQTSGAREPPQAVSIKEA [VENTX], the protein stability index reads like this: under setting [3], 5.01 ± 0.41; under setting [4], 5.52 ± 0.2. The matching figures for GTFQVNFYHDHTKIIICSQNEEYL [PLK2]: 2.5 ± 1.1 and 2.21 ± 0.42.

Turning to GTIRPVRCPSSSLHMSQRERTWPP [C22orf15], the protein stability index runs as follows: under setting [3], 3.77 ± 0.098; under setting [4], 3.75 ± 0.17. On to GTNEALLRQLRELEEQFALEAGGY [PRPH], for which the protein stability index by setting is: under setting [3], 4.07 ± 0.24; under setting [4], 3.92 ± 0.26. The matching figures for GTQPRATKHKCRQLTKASLKPRGC [SPACA9]: 3.81 ± 0.29 and 3.95 ± 0.19. The matching figures for GVCQSMCHDKYTKIFNDFKDRMKS [ZMYND11]: 3.11 ± 0.032 and 2.92 ± 0.23.

For the sequence GVVDSEDLPLNISREMLQQSKILK [HSP90AB1], the protein stability index turned out to be 4.09 ± 0.22 under setting [3] and 4.14 ± 0.28 under setting [4]. As for GVVHPSNEVLSSDILPRWAIIGWL [INTS3], the protein stability index by setting is: under setting [3], 2.13 ± 0.41; under setting [4], 2.18 ± 0.45.

For GWFWVCPGGGDICMYRHALPPGFV [ZC3H15], the protein stability index reads like this: under setting [3], 2.83 ± 2.2; under setting [4], 2.57 ± 0.8. GYQHVDLQNFSSSWSDGMAFCALV [SMTNL2]: the protein stability index by setting is: under setting [3], 2.16 ± 0.49; under setting [4], 2.01 ± 0.15.

Source of the values: the supplement of paper PMC10567573.
